B1: C4.985: anti-ABCC4 antibody raised in rats; VH SEQ ID NO: 14, VL SEQ ID NO: 134 (antibody, V domains shown)
VH: EVQLVESGGGLVQPGRSLKLSCTASGFTFNKNWMAWIRQAPGKGLEWVASITNTGGNTYYPDSVKGRFTVSRDQTISTLYLQMNSLRSEDTATYFCTRERIGSGYYVMDAWGRGASVTVSS
VL: DTVLTQSPALTVSPGERVTISCRASESVTSFMNWYQQKPGQQPKLLIYLASDLESGVPARFSGSGSGADFTLTIDPVEADDTATYYCQQSWIDPPTFGTGTKLELK
B2: C4.947: anti-ABCC4 antibody raised in rats; VH SEQ ID NO: 5, VL SEQ ID NO: 128 (antibody, V domains shown)
VH: EVKLVESGGGLVQPGGSMRLSCAASGFTFTDFYMNWIRQPAGKAPEWLGFIRNKANAYTTAYNPSVKGRFTISRDNAQNMLYLQMNTLRAEDTATYYCARSNYGFDYWGQGVMVTVSS
VL: DVAMTQTPPSLSVAIGQSVSISCKSSQSLVYSDGKTYLHWLLQSSGRSPKRLIYQVSNLDSGVPDRFSGTGSQKDFTLKISRVEAKDLGVYYCAQTTHFPFTFGSGTKLEIK
B3: C4.1000: anti-ABCC4 antibody raised in rats; VH SEQ ID NO: 18, VL SEQ ID NO: 138 (antibody, V domains shown)
VH: QVQLTESGPGLVQPSQTLSLTCTISGFSLTSYGVSWVRQPPGKGLEWIGAIWSGGGTNYDSALKSRLSISRDTSKSQVLLKMNSLQTEDTAMYFCASGDWFAYWGQGTLVTVSS
VL: DIQMTQSPPSLSASLGDKVTITCQASQNINKYIAWFQQKPGKAPRLLIRYTSTLESGTPSRFSGSGSGRDYSFSISTVESEDIASYYCLQYVNLYTFGAGTKLELK
B4: C4.991: anti-ABCC4 antibody raised in rats; VH SEQ ID NO: 16, VL SEQ ID NO: 136 (antibody, V domains shown)
VH: EVKLVESGGGLVQPGRSLQVSCVASGFIFTDYYMAWVRQAPTKGLEWVAYINYDGGSTYYGDSVKGRFTISRDNAKSTLYLQMNSLRSEDMATYYCARRDYGSKFDNWGQGTLVTVSS
VL: DIVMTQSPSLLSASVGDRVTLTCKGSQNINNFLAWYQQKRGEAPKLLIYKTNSLHTGIPSRFSGSGSGTEYTLTISSLHSEDLATYYCYQYNNGYTFGAGTKLELK
B5: C4.987: anti-ABCC4 antibody raised in rats; VH SEQ ID NO: 15, VL SEQ ID NO: 135 (antibody, V domains shown)
VH: EVQLVESGGGLVQPGRSMKLSCAASGFTFSNYYMAWVRQAPTKGLEWVASISTGGGNTHYRDSVKGRFTISRDNAKSTLYLQMDSLRSEETATYYCARGEDRYKGVFAYWGQGTLVTVSS
VL: DVQMTQSPSNLAASPGESVSINCKASKSISKYLAWYQQKPGKANKLLIYSGSTLQSGTPSRFSGSGSGTDFTLTIRNLEPEDFGLYYCQHHNEYPPTFGAGTKLELK
B6: C4.972: anti-ABCC4 antibody raised in rats; VH SEQ ID NO: 11, VL SEQ ID NO: 132 (antibody, V domains shown)
VH: EVQLKESGPGLVQPSETLSLTCTVSGFSLTSYNVHWVRQPPGKGLEWMGVMWSGGSTDYSSALKSRLSISRDTSKNQVFLKMNSLQSEDTTTYYCARDRGGYYYDGYPHDFVYWGQGVMVTVSS
VL: EIVIIQSPALAVSLGQRATISCKTNQNVDYYGNSYIHWYQQKPGQQPKLLIYLASNLASGIPARFSGRGSGTDFTLTIDPVEADDPATYYCQQSRNLPFTFGSGTKLELK
B7: C4.884: anti-ABCC4 antibody raised in rats; VH SEQ ID NO: 1, VL SEQ ID NO: 124 (antibody, V domains shown)
VH: EVQLVESGPGLVQPSQTLSLTCTVSGFSLTSNSVHWVRQPPGKGLEWIGAIWSGGSTDYNSALKSRLSISRDTSKSQVFLKMNSLQTEDTAIYFCTGLIFPYWGQGASVTVSS
VL: DVVMTQTPSILSGTLGRSVSISCRSSQSLLDSDGTTYLYWFLQRPGQSPQRLIYLVSNLGSGVPNRFSGSGSGTDFTLKISGVEAEDLGVYYCMQATHVPFTFGSGTKLEIK

Target: T1, human ABCC4 (Homo sapiens, UniProt O15439)
T1 construct: expressed in transfected cells
T1 sequence (O15439 1-1325): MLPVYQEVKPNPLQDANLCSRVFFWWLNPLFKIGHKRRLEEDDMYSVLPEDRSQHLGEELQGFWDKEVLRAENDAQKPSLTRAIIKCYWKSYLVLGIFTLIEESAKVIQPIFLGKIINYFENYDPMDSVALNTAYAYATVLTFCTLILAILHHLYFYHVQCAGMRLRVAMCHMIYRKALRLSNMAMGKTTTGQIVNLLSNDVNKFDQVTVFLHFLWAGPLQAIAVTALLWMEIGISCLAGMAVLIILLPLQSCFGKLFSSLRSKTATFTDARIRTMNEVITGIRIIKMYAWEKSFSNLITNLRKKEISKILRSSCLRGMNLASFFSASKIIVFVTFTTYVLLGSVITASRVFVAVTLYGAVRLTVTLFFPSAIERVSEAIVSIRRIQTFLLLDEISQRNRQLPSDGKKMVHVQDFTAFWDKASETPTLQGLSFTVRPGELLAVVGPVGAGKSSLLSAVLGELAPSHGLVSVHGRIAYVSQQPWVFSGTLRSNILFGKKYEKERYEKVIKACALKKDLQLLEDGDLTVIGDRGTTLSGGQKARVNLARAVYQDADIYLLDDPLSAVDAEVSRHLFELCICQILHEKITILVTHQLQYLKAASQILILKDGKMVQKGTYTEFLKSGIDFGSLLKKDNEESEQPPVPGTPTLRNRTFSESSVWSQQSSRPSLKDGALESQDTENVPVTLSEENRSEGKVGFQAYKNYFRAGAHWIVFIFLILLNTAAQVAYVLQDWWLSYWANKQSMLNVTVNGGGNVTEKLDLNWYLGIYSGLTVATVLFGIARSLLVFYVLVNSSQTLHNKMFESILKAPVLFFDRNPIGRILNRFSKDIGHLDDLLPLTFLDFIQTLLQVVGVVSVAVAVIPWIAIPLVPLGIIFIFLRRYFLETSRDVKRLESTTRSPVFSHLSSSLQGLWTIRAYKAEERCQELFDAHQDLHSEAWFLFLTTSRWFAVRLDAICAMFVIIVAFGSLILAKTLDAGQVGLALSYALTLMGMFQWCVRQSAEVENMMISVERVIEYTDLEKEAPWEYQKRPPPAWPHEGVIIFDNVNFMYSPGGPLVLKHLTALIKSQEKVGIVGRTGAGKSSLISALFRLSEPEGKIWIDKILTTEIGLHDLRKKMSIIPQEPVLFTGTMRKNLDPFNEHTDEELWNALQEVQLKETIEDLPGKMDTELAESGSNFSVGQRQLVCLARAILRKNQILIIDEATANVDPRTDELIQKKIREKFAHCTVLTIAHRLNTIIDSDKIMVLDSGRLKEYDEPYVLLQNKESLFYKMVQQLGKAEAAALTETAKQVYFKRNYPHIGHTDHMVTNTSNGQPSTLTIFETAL
Test: Flow cytometry (FACS) binding to C6 cells stably transfected to express human ABCC4 (Table 3 study)
Details: C6 cells stably transfected to express human ABCC4, FACS; Table 3
Protocol: (§1) Binding titration of recombinant antibodies to ABCC4 transfectants was performed by serial dilution of antibodies from about 666 nM. Diluted antibody in flow cytometry buffer was incubated with cells on ice for 30 min. After 2 washes with flow cytometry buffer, bound antibody was detected with PE-labeled F(ab′)2 fragment goat anti-human IgG (Jackson ImmunoResearch) diluted 1:200 in flow cytometry buffer and incubated with cells for 20 min on ice. After 2 washes with flow cytometry buffer fluorescence was measured on an Attune N×T flow cytometer. Data were analyzed with GraphPad Prism 8.0 software to determine EC50's.
(§2) Human embryonic kidney HEK 293T cells and murine C6 (ATCC CCL-107) were transfected with human or cynomolgus ABCC4 cDNA with C-terminal fused FLAG tag in a pMONO-hygro vector with Lipofectamine 3000 (Invitrogen #L3000001). The cells were treated with 0.2 mg/ml and 0.5 mg/ml hygromycin respectively for about 2 weeks while cultivated in DMEM and 10% FBS with 0.2 mg/ml hygromycin and 0.5 mg/ml hygromycin, respectively. The cells were washed with PBS, and stained with […] of anti-FLAG-PE after fixing and permeablization. Clones expressing ABCC4 were single-cell sorted into 200 μl DMEM with 10% FBS using a BD Aria FACS machine and cultivated in 96 well plates using standard techniques in an incubator at 37° C. and 5% CO 2. Two weeks later clones expressing high levels of ABCC4 were screened and amplified.
(§3) Antibody binding to cells was evaluated by flow cytometry. Murine C6 cells stably transfected to express human or cynomolgus ABCC4 were washed once in flow cytometry buffer (PBS+2% FBS+0.02% sodium azide), resuspended at 2×10^6 cells/mL in flow cytometry buffer, and dispensed into 96-well microtiter plates at 0.1 mL/well. Recombinant antibodies were added to cells at 5 ug/mL for initial binding confirmation, or serially diluted from 100 ug/mL in flow cytometry buffer. After incubating cells on ice for 30 min, cells were washed twice with flow cytometry buffer. Bound antibody was detected with PE-labeled F(ab′)2 fragment goat anti-human IgG (Jackson ImmunoResearch) and evaluated on an Attune N×T flow cytometer. EC50 is calculated to be the concentration of antibody that gives half maximal response.
(§4) Table 3 lists the following characteristics of the rat anti-ABCC4 antibodies tested: binding to C6 cells stably transfected to express human ABCC4 measured by FACS and binding to C6 cells stably transfected to express cynomolgus ABCC4 measured by FACS. Negative (−) is defined as maximum response (Rmax(MFI)) below background level. Positive (+) is defined as MFI>1000.

Molecule | Human ABCC4 binding
B1 | + (Positive (+) is defined as MFI>1000)
B2 | + (Positive (+) is defined as MFI>1000)
B3 | + (Positive (+) is defined as MFI>1000)
B4 | + (Positive (+) is defined as MFI>1000)
B5 | + (Positive (+) is defined as MFI>1000)
B6 | + (Positive (+) is defined as MFI>1000)
B7 | + (Positive (+) is defined as MFI>1000)

Test system: cynomolgus ABCC4
Test: Flow cytometry (FACS) binding to C6 cells stably transfected to express cynomolgus ABCC4 (Table 3 study)
Set-up: key to Cynomolgus ABCC4 binding: Negative (−) is defined as maximum response (Rmax(MFI)) below background level; Positive (+) is defined as MFI>1000
Details: C6 cells stably transfected to express cynomolgus ABCC4, FACS; Table 3
Protocol: as §1, §2, §3, §4

Molecule | Cynomolgus ABCC4 binding
B1 | −
B2 | −
B3 | −
B4 | −
B5 | −
B6 | −
B7 | −

Target: T1, human ABCC4
Test: Flow cytometry (FACS) binding to C6 cells stably transfected to express human ABCC4 (different experiment, Table 4)
Details: C6 cells stably transfected to express human ABCC4, FACS; different experiment, Table 4
Procedure, shortened: (§5)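 Murine C6 cells stably expressing FLAG-tagged human or cynomolgus ABCC4 incubated 30 min on ice with antibodies, either 5 ug/mL or serially diluted from 100 ug/mL, in PBS+2% FBS+0.02% azide. Detection with PE anti-human IgG F(ab′)2 by flow cytometry; EC50 at half-maximal MFI; negative below background, positive >3× background.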

Molecule | Human ABCC4 binding
B1 | + (Positive (+)=MFI>3× background level)
B2 | + (Positive (+)=MFI>3× background level)
B3 | + (Positive (+)=MFI>3× background level)
B4 | + (Positive (+)=MFI>3× background level)
B5 | + (Positive (+)=MFI>3× background level)
B6 | + (Positive (+)=MFI>3× background level)
B7 | + (Positive (+)=MFI>3× background level)

Same assay, conditions: Table 4 study, stated in words

Molecule | binding to human ABCC4 expressed on cell surface
B6 | bind to both human and cynomolgus ABCC4

Test system: cynomolgus ABCC4
Test: Flow cytometry (FACS) binding to C6 cells stably transfected to express cynomolgus ABCC4 (different experiment, different C6.cC4 cell line, Table 4)
Set-up: key to Cynomolgus ABCC4 binding: Negative (−)=Rmax (MFI) below background level; Positive (+)=MFI>3× background level
Details: Table 4 study, stated in words
Procedure, shortened: as §5

Molecule | binding to cynomolgus ABCC4 expressed on cell surface
B6 | bind to both human and cynomolgus ABCC4

Same assay, conditions: different C6.cC4 cell line, C6 cells stably transfected to express cynomolgus ABCC4, FACS; Table 4

Molecule | Cynomolgus ABCC4 binding
B1 | −
B2 | −
B3 | −
B4 | −
B5 | −
B6 | + (Positive (+)=MFI>3× background level)
B7 | −

— patent US20240010747A1, “ANTI-MRP4 (ENCODED BY ABCC4 GENE) ANTIBODIES AND USES THEREOF” (Kenjockety Biotechnology, Inc., priority 2020, published 2024)
